Source: patent US20140056903A1 (Regeneron, published 2014)

T1: human GFRα3 on HEK293/hGFRα3/hRET/SRE-luc cells (human, UniProt O60609 32-382)
T1 sequence: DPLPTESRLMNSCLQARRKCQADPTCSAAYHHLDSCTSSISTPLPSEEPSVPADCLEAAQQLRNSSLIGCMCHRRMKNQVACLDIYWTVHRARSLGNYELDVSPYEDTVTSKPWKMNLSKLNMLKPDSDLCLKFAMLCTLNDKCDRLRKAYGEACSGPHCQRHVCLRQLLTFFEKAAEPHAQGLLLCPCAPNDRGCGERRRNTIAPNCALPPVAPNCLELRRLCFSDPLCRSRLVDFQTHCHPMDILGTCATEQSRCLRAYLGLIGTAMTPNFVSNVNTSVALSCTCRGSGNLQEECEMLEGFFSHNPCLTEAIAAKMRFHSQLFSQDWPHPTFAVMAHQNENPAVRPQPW

T2: cynomolgus GFRα3 on HEK293/MfGFRα3/MfRet/SRE-Luc cells (cynomolgus, UniProt O60609 1-400 (human entry), limits assumed)
T2 chain: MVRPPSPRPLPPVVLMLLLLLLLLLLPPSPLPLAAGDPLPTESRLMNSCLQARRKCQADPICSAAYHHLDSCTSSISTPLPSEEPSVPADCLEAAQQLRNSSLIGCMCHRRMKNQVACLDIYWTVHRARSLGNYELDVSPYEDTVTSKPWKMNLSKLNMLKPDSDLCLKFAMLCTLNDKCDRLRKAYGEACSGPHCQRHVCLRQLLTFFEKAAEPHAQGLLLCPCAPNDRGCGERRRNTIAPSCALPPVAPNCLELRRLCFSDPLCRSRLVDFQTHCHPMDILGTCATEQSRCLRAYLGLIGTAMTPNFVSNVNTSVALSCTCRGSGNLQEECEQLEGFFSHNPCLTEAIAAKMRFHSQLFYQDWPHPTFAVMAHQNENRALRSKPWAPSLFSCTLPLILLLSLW

B1: H4H2234N (antibody, human IgG4, V domains shown)
VH: EVQLLESGGGLVQSGGSLRLSCAASGFSFNNYAMSWVRQAPGKGLEWVSFISGSGGSTYYADSVKGRFTISRDNSKNTLYLQMNSLRVEDTAVFYCAKDRYNYGTFFDYWGQGTLVTVSS
VL: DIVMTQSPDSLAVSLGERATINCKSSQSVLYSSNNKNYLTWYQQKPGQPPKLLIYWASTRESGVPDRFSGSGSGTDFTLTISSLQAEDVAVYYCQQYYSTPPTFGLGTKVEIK
notes: human IgG4 Fc (H4H)
B2: H4H2207N (antibody, human IgG4, V domains shown)
VH: EVQLVESGGGLVQPGRSLRLSCAASGFTFNDYAMHWVRQAPGKGLEWVSGISWNSGNIGYADSVKGRFTISRDNAKNSLYLQMNSLRAEDTALYFCARDTRMATRPFDYWGQGTLVTVSS
VL: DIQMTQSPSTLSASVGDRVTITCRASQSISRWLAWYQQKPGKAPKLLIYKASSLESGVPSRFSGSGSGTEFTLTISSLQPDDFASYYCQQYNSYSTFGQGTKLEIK
notes: human IgG4 Fc (H4H)
B3: recombinant human ARTEMIN protein with a C-terminal myc-myc-hexahistidine tag (ligand)
chain: AGGPGSRARAAGARGCRLRSQLVPVRALGLGHRSDELVRFRFCSGSCRRARSPHDLSLASLLGAGALRPPPGSRPVSQPCCRPTRYEAVSFMDVNSTWRTVDRLSATACGCLGEQKLISEEDLGGEQKLISEEDLHHHHHH

How the values were obtained:
[1] = molecular target: T1, human GFRα3 on …; experiment: cell-based or functional assay
[2] = molecular target: T3, human GFRα3 expressed with a C-terminal hFc tag (human); experiment: blocking ELISA 1, hGFRα3-hFc to coated hARTEMIN-mmH
T3 construct: also called hGFRα3-hFc
Method: (§1) A constant amount of human GFRα3 fused with a C-terminal human Fc tag (hGFRα3-hFc; SEQ ID:371) at 120 pM was pre-mixed with varying amounts of antibodies, ranging from 0 to ˜10 nM in serial dilutions, followed by an 1 hour incubation at room temperature (RT) to allow antibody-hGFRα3-hFc binding to reach equilibrium. The equilibrated sample solutions were then transferred to the hARTEMIN-mmH-coated plate. […] Absorbance was recorded at 450 nm on a Victor X5 plate reader (Perkin Elmer) to determine the amount of free hGFRα3-hFc in the pre-equilibrated hGFRα3-hFc-antibody solutions that was able to bind to the plate coated with hARTEMIN-mmH. IC₅₀ values, defined as the concentration of antibody required to reduce the signal from a constant concentration of hGFRα3-hFc by 50%, were calculated from the data using Prism software from GraphPad. The absorbance measured at the constant amount of 120 pM hGFRα3-hFc in the absence of anti-GFRα3 antibody is defined as 0% blocking and the absorbance with no added hGFRα3-hFc is defined as 100% blocking. The observed absorbance in the wells containing the highest antibody concentration was used to calculate the maximum blocking percent shown in the table.

[3] = molecular target: T4, human GFRα3 expressed with a C-terminal myc-myc-hexahistidine tag (human, UniProt O60609 32-374, biotinylated (sites not given) in ELISA format 2 and in the Octet cross-competition; not in SPR); experiment: blocking ELISA 2, biotin-hGFRα3-mmH to coated hARTEMIN-mmH + hRET-10His
T4 construct: also called hGFRα3-mmh; hGFRα3-mmH
Method: as §1, with “The” for “A constant amount of human GFRα3 fused with a C-terminal human Fc tag (hGFRα3-hFc; SEQ ID:371) at 120 pM was pre-mixed with varying amounts of antibodies, ranging from 0 to ˜10 nM in serial dilutions, followed by an 1 hour incubation at room temperature (RT) to allow antibody-hGFRα3-hFc binding to reach equilibrium. The”
In the second ELISA format, the plates, samples and data were processed similarly as for the first format except both hARTEMIN-mmH and human RET with a C-terminal 10 histidine tag (hRET-10His; R&D Systems, #1168-CR/CF) were coated for the blocking ELISA experiment. The 96-well microtiter plates were coated with a mixture of 1.2 ug/ml hARTEMIN-mmH and 6.9 ug/ml hRET-10His proteins in PBS overnight at 4° C. and then blocked with a solution of 0.5% (w/v) BSA. A constant amount of biotinylated human GFRα3 with a C-terminal myc-myc-hexahistidine tag (biotin-hGFRα3-mmH; SEQ ID:370) at 1 nM was pre-mixed with varied amounts of anti-GFRα3 antibodies, ranging from 0 to ˜100 nM in serial dilutions, followed by a 1 hour incubation at RT to allow antibody-biotin-hGFRα3-mmH binding to reach equilibrium. The equilibrated samples were then transferred to the coated plate. After 1 hour of binding, the plate was washed, then the bound biotin-hGFRα3-mmH was detected using HRP conjugated streptavidin (Pierce, #N200), and colorimetric signals were developed using TMB HRP substrates.

[4] = molecular target: T2, cynomolgus GFRα3 on …; experiment: cell-based or functional assay

Row | Binder | IC50 (SRE-luc, HEK293/hGFRα3/hRET cells, 100 pM hARTEMIN-mmH) [1] [nM] | % max blocking [2] [%] | IC50 [2] [nM] | % max blocking [3] [%] | IC50 [3] [nM] | EC50 of SRE-dependent luciferase activity in HEK293/mfGFRα3/mfRet/SRE-LUC cells [4] [nM]
1 | B1 | 2.3 | 70 | 0.0829 | 97 | 3.42 | 
2 | B2 | 2.4 |  |  | 85 | 7.3 | 
3 | B3 |  |  |  |  |  | 0.07
